Assay results taken from patent publication US20250388623A1 (CHENGDU BRILLIANT INSPIRATION BIOTHERAPEUTICS, published 2025).
Values belong to the binder of their own block, whether it stands above or below them. Bridge positions count the residues as written; N and C are the ends. Ends that are not written are not given here.

Key:
[1] = molecular target: T1, TSP-1 protein (novoprotein, Catalog No. CU45) (UniProt P07996 19-1170, limits assumed); assay: competition ELISA, TSP-1 coated, CD36-Fc as competitor, peptide 0-100 µM
T1 construct: Bought protein coated on the ELISA plate; also called Thrombospondin-1
Description: (§1) ELISA assay was performed to detect the ability of the polypeptides to block the binding of TSP-1 protein to CD36, a TSP-1 receptor protein. TSP-1 protein (novoprotein, Catalog No. CU45) was diluted to 2 μg/mL using 100 mM carbonate buffer and added to sample wells (100 μL/well) of a 96-well ELISA plate (Thermo, Catalog No. 437111), and incubated overnight at 4° C.; after washing the plate twice using 1×PBST wash solution, 200 μL of 1.5% BSA (Sigma, Catalog No. B2064) was added to each well, and incubated at 37° C. for 2 h; after washing the plate 3 times using 1×PBST wash solution, the analytes were added (100 μL/well, 3 replicate wells; for the control group, 0.25 μg/mL of Fc-tagged CD36 protein (R&D Systems, Catalog No. 1955-CD-050); and for the polypeptide-treated groups, a mixture containing Fc-tagged CD36 protein and polypeptide at final concentrations of 0.25 μg/mL and 100 μM, respectively), and incubated at 37° C. for 3 h. After washing the plate 5 times using 1×PBST wash solution, a 1:500 dilution solution of FITC-labeled anti-Fc-tagged antibody (Beyotime, Catalog No. A0556) was added, and incubated for 1 h at 37° C.; after washing the plate 5 times using 1×PBST wash solution, a multifunctional ELISA instrument (TECAN, model: Infinite 200 Pro) was used to detect the intensity of FITC fluorescence signal in each sample well. The ability of the polypeptides to block CD36 binding to TSP-1 protein (Table 2-1) was assessed by calculating the ratio of the fluorescence signal from the polypeptide-treated groups to that of the control group, allowing for the determination of the blocking rate of the polypeptides in inhibiting CD36 binding to TSP-1 protein, i.e., (fluorescence signal of the control group-fluorescence signal of the polypeptide-treated group)/fluorescence signal of the control group×100%. Based on the blocking rate results obtained at the single concentration and on the polypeptide molecule properties, the preferred polypeptide molecules were assayed for concentration dependence (at 0 μM, 0.5 μM, 1 μM, 5 μM, 10 μM, and 100 μM), and IC₅₀ values of the polypeptides for blocking CD36 binding to TSP-1 protein were determined to further assess the abilities of the preferred polypeptide molecules to block the binding of CD36 to TSP-1 (Table 2-2).

[2] = molecular target: T1, TSP-1 protein (novoprotein, Catalog No. …); assay: competition ELISA, TSP-1 coated, CD36-Fc 0.25 µg/mL as competitor, peptide 100 µM
Description: as §1

[3] = molecular target: TSP-1 protein expressed by PMA-differentiated THP-1 macrophage-like cells (UniProt P07996 19-1170); assay: cell-based or functional assay
TSP-1 protein expressed by PMA-differentiated THP-1 macrophage-like cells, sequence (P07996 19-1170 limits assumed): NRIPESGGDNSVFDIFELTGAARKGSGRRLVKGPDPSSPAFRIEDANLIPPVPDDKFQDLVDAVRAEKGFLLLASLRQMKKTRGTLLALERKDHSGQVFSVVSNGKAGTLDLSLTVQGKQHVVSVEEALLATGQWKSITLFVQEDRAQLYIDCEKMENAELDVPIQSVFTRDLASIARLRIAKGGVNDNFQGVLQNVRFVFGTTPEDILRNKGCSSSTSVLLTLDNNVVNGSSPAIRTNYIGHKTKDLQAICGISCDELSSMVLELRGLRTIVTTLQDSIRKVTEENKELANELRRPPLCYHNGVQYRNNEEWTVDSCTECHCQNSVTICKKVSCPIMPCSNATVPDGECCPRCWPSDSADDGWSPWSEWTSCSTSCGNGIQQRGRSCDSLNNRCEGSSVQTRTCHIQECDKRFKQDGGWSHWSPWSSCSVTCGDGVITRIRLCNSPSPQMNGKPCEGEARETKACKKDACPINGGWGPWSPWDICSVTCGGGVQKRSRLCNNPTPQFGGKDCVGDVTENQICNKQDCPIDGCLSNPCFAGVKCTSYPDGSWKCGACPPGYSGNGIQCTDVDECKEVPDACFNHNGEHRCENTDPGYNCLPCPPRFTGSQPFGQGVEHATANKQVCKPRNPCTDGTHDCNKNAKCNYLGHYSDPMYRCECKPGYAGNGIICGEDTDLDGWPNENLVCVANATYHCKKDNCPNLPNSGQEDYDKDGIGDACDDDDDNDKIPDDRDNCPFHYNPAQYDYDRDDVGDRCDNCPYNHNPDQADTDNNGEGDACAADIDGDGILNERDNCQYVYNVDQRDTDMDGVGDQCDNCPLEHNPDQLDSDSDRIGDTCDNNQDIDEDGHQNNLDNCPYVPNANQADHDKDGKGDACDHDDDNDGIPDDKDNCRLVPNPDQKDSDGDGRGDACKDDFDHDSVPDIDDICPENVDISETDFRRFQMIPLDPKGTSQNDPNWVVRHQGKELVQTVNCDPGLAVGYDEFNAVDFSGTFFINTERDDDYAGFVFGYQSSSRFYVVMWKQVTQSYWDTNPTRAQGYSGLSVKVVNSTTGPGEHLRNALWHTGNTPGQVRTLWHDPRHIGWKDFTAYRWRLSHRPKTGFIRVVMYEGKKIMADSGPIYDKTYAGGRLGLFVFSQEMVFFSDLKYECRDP

T1 sequence (P07996 19-1170 limits assumed): as above

B1: SEQ ID NO: 23 (peptide)
peptide: Ac-QDAEDNTAS-NH2
IC50 [1]: 22.9 µM
Blocking rate (Mean, %) [2]: 22.8%

B2: SEQ ID NO: 40 (peptide)
peptide: TQDAEDN
modifications: Head-to-tail cyclization
notes: cyclic peptide; also called TQDAEDN; cyclo[Thr-Gln-Asp-Ala-Glu-Asp-Asn]
IC50 [1]: 7.7 µM
Blocking rate (Mean, %) [2]: 37.5%
Mean (relative fluorescence intensity), 293-TGFβ Res reporter cells [3]: 0.77 ratio to negative control

B4: SEQ ID NO: 15 (peptide)
peptide: Ac-TQDAEDNT-NH2
IC50 [1]: 5.65 µM
Blocking rate (Mean, %) [2]: 30.6%

B5: SEQ ID NO: 31 (peptide)
peptide: Ac-TQDAEDNTASF-NH2
Mean (relative fluorescence intensity), 293-TGFβ Res reporter cells [3]: 0.79 ratio to negative control

B6: SEQ ID NO: 06 (peptide)
peptide: Ac-TQDAEDN-NH2
notes: also called TQDAEDN
IC50 [1]: 12.7 µM
Blocking rate (Mean, %) [2]: 17.7%
Mean (relative fluorescence intensity), 293-TGFβ Res reporter cells [3]: 0.65 ratio to negative control

B7: SEQ ID NO: 14 (peptide)
peptide: Ac-TQDPEDN-NH2
notes: also called TQDPEDN
IC50 [1]: 4.76 µM
Blocking rate (Mean, %) [2]: 27.9%
Mean (relative fluorescence intensity), 293-TGFβ Res reporter cells [3]: 0.7 ratio to negative control

B9: SEQ ID NO: 36 (peptide)
peptide: Ac-TQDAEDNTVSFLQ-NH2
IC50 [1]: 4.85 µM
Blocking rate (Mean, %) [2]: 23.1%
Mean (relative fluorescence intensity), 293-TGFβ Res reporter cells [3]: 0.83 ratio to negative control

B10: SEQ ID NO: 04 (peptide)
peptide: Ac-TQDAED-NH2
Mean (relative fluorescence intensity), 293-TGFβ Res reporter cells [3]: 0.77 ratio to negative control

B11: SEQ ID NO: 33 (peptide)
peptide: Ac-TQDAEDNTASH-NH2
IC50 [1]: 14.3 µM
Blocking rate (Mean, %) [2]: 21.4%
Mean (relative fluorescence intensity), 293-TGFβ Res reporter cells [3]: 0.67 ratio to negative control

B12: SEQ ID NO: 24 (peptide)
peptide: Ac-TQDAEDNTAS-NH2
IC50 [1]: 10.6 µM
Blocking rate (Mean, %) [2]: 32.6%
Mean (relative fluorescence intensity), 293-TGFβ Res reporter cells [3]: 0.57 ratio to negative control

B14: SEQ ID NO: 26 (peptide)
peptide: Ac-TQDPEDNTAS-NH2
IC50 [1]: 3.4 µM
Blocking rate (Mean, %) [2]: 53.8%
Mean (relative fluorescence intensity), 293-TGFβ Res reporter cells [3]: 0.68 ratio to negative control

B15: SEQ ID NO: 25 (peptide)
peptide: Ac-TQDAEDPTAS-NH2
IC50 [1]: 7.4 µM
Blocking rate (Mean, %) [2]: 33%
Mean (relative fluorescence intensity), 293-TGFβ Res reporter cells [3]: 0.73 ratio to negative control

B17: SEQ ID NO: 03 (peptide)
peptide: Ac-TQDPED-NH2
Mean (relative fluorescence intensity), 293-TGFβ Res reporter cells [3]: 0.7 ratio to negative control

B21: SEQ ID NO: 41 (peptide)
peptide: TQDPEDN
modifications: Head-to-tail cyclization
Mean (relative fluorescence intensity), 293-TGFβ Res reporter cells [3]: 0.62 ratio to negative control

B22: SEQ ID NO: 05 (peptide)
peptide: Ac-QDAEDN-NH2
Mean (relative fluorescence intensity), 293-TGFβ Res reporter cells [3]: 0.83 ratio to negative control

B23: SEQ ID NO: 22 (peptide)
peptide: Ac-TQDAEDPTA-NH2
IC50 [1]: 7.2 µM
Blocking rate (Mean, %) [2]: 40.9%
Mean (relative fluorescence intensity), 293-TGFβ Res reporter cells [3]: 0.74 ratio to negative control

B24: SEQ ID NO: 17 (peptide)
peptide: Ac-TQDAEDNTV-NH2
Mean (relative fluorescence intensity), 293-TGFβ Res reporter cells [3]: 0.78 ratio to negative control

Next, values leading:

Mean (relative fluorescence intensity), 293-TGFβ Res reporter cells [3]: 0.8 ratio to negative control
B3: SEQ ID NO: 47 (peptide)
peptide: Ac-TQDPAED-NH2

IC50 [1]: 10.1 µM
Blocking rate (Mean, %) [2]: 30.2%
B8: SEQ ID NO: 49 (peptide)
peptide: Ac-TQDAEDNTQD-NH2

IC50 [1]: 1.4 µM
Blocking rate (Mean, %) [2]: 56.1%
Mean (relative fluorescence intensity), 293-TGFβ Res reporter cells [3]: 0.69 ratio to negative control
B13: SEQ ID NO: 46 (peptide)
peptide: TQDPEDNTAS
modifications: Head-to-tail cyclization
notes: cyclic peptide

IC50 [1]: 5.96 µM
Blocking rate (Mean, %) [2]: 46%
Mean (relative fluorescence intensity), 293-TGFβ Res reporter cells [3]: 0.52 ratio to negative control
B16: SEQ ID NO: 45 (peptide)
peptide: QDAEDNT
modifications: Head-to-tail cyclization
notes: cyclic peptide; also called QDAEDNT; cyclo[Gln-Asp-Ala-Glu-Asp-Asn-Thr]

Mean (relative fluorescence intensity), 293-TGFβ Res reporter cells [3]: 0.67 ratio to negative control
B18: SEQ ID NO: 42 (peptide)
peptide: TQDAEDNK
modifications: lactam 3-8

IC50 [1]: 10.6 µM
Blocking rate (Mean, %) [2]: 23.4%
Mean (relative fluorescence intensity), 293-TGFβ Res reporter cells [3]: 0.84 ratio to negative control
B19: SEQ ID NO: 50 (peptide)
peptide: YRVRFLAKENVTQDAEDN
notes: Printed as 'Without modification'; also called Positive control group

IC50 [1]: 11.7 µM
Blocking rate (Mean, %) [2]: 29.7%
B20: SEQ ID NO: 48 (peptide)
peptide: Ac-TQDPAEDN-NH2
